# “Also recorded” adds a separate entry of the source. Ends that are not written are not given here. Peptide text beside a SMILES is read from it. * marks the point of attachment. Cbz = O=C(OCc1ccccc1)*
# Columns and labels:
# IL-8 promoter = assay: Dual luciferase assay, firefly luciferase under control of the IL-8 promoter, in Ovcar4 cells; format: cell-based
# Protocol: HEK-293 cells were grown in McCoy's 5A medium supplemented with 10% fetal bovine serum (FBS) and 1% penicillin/streptomycin (P/S). Ovcar4 cells were grown in RPMI medium with 10% FBS and 1% P/S. All cells were maintained at 37° C. and 90% humidity in a tissue culture incubator with 5% CO2 atmosphere. Cells were passaged every 2-4 days as they became confluent, using 0.25% trypsin. Where indicated, cells were transfected using 5 μL per well Lipofectamine 2000 (Life Technologies, Carlsbad, Calif.) in a total of 2 mL per well of OptiMEM low serum medium (Life Technologies). For proteasome inhibition studies, MG132 was added to cells in normal medium four hours after transfection and left on overnight. 5 μM was used for western studies, and 1 μM was used for luciferase assays. […]
# Ovcar4 cells were plated at 50,000-75,000 cells per well, in 500 μL RPMI, in a 24 well plate and allowed to adhere overnight. […] The day after transfection, luciferase expression was quantified using the Dual Luciferase Assay kit (Promega, Madison, Wis.) according to the manufacturer instructions.
# Western blots were quantified using GeneTools software. Data were graphed and analyzed in Microsoft Excel and GraphPad Prism 6, respectively. […] Luciferase assays were analyzed using one-way ANOVA with correction for multiple comparisons. […]
# TWIST1 [1] = target: T1, TWIST1 (Homo sapiens, UniProt Q15672); assay: Cell fractionation and western blot of TWIST1 and GFP in HEK-293 cells; format: cell-based
# T1 construct: The cloning of TWIST1 into the pcDNA4-MycHis vector has been described previously [14]; expressed in transfected cells; host or cells: HEK-293
# T1 sequence (Q15672 1-202): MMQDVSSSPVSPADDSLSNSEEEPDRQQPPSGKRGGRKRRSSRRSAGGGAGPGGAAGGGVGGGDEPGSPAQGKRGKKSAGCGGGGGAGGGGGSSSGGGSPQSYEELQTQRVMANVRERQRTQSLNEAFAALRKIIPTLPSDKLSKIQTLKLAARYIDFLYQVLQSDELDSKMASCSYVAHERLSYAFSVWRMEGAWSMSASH
# Protocol: HEK-293 cells were grown in McCoy's 5A medium supplemented with 10% fetal bovine serum (FBS) and 1% penicillin/streptomycin (P/S). Ovcar4 cells were grown in RPMI medium with 10% FBS and 1% P/S. All cells were maintained at 37° C. and 90% humidity in a tissue culture incubator with 5% CO2 atmosphere. Cells were passaged every 2-4 days as they became confluent, using 0.25% trypsin. Where indicated, cells were transfected using 5 μL per well Lipofectamine 2000 (Life Technologies, Carlsbad, Calif.) in a total of 2 mL per well of OptiMEM low serum medium (Life Technologies). For proteasome inhibition studies, MG132 was added to cells in normal medium four hours after transfection and left on overnight. 5 μM was used for western studies, and 1 μM was used for luciferase assays.
# (§1) In order to create a competitive inhibitor for TWIST1-RELA binding, the WR domain from TWIST1 was fused to GFP. To achieve this, PCR was used to amplify the final 63 nucleotides of the TWIST1 gene (including stop codon) and add 5′ XhoI and 3′ BamHI restriction sites. The PCR fragment and the pEGFP-C3 vector were subjected to XhoI-BamHI double digest (New England BioLabs, Ipswich, Mass.) and the two were ligated together. GFP lacking the WR domain was used as a control, and includes residues at the C-terminus encoded by the multiple cloning site of the vector. As a result, the molecular weights of the two GFP proteins are indistinguishable on a western blot. To achieve equal expression of GFP-WR compared to unmodified GFP, it was necessary to transfect cells with three-fold more GFP-WR plasmid versus GFP. A one to one ratio was sufficient for CoIP illustrated in FIG. 4C. […]
# Protein was run on 4% stacking, 10% resolving polyacrylamide gels and transferred to PVDF membrane (GE Healthcare Bio-Sciences, Pittsburgh, Pa.) on a Trans-Blot SD Semi-Dry Transfer Cell (Bio-Rad, Hercules, Calif.). […] Protein was detected using FemtoGlow chemiluminescent substrate (Michigan Diagnostics, Royal Oak, Mich.) and the Pxi4 imager (Syngene, Frederick, Md.). […]
# TWIST1-RELA binding = target: T2, TWIST1-RELA binding (Homo sapiens, UniProt Q15672); assay: Co-immunoprecipitation with RELA pulldown in transfected HEK-293 cells; conditions: increasing GFP-WR expression, total GFP held constant with control GFP
# T2 construct: The cloning of TWIST1 into the pcDNA4-MycHis vector has been described previously [14]; The wild type RELA gene was also cloned into pcDNA4-MycHis; expressed in transfected cells; host or cells: HEK-293
# T2 sequence (Q15672 1-202): T1 sequence (Q15672 1-202)
# Text: as §1, with “blot.” for “blot. To achieve equal expression of GFP-WR compared to unmodified GFP, it was necessary to transfect cells with three-fold more GFP-WR plasmid versus GFP. A one to one ratio was sufficient for CoIP illustrated in FIG. 4C.”
# (§2) HEK-293 cells were plated at 500,000 cells per well, in 2 mL normal medium, in a 6 well plate and allowed to adhere. […] Cell pellets were lysed in RIPA buffer, and protein concentration was determined by BCA Protein Assay (Thermo Fisher, Waltham, Mass.). […]
# (§3) Protein was run on 4% stacking, 10% resolving polyacrylamide gels and transferred to PVDF membrane (GE Healthcare Bio-Sciences, Pittsburgh, Pa.) on a Trans-Blot SD Semi-Dry Transfer Cell (Bio-Rad, Hercules, Calif.). […] Protein was detected using FemtoGlow chemiluminescent substrate (Michigan Diagnostics, Royal Oak, Mich.) and the Pxi4 imager (Syngene, Frederick, Md.). Quantitation was performed using the accompanying GeneTools software.
# RELA = target: T3, RELA (Homo sapiens, UniProt Q04206); assay: Co-immunoprecipitation with GFP pulldown in transfected HEK-293 cells; format: binding; conditions: data not shown
# T3 construct: The wild type RELA gene was also cloned into pcDNA4-MycHis; expressed in transfected cells; host or cells: HEK-293
# T3 sequence (Q04206 whole entry): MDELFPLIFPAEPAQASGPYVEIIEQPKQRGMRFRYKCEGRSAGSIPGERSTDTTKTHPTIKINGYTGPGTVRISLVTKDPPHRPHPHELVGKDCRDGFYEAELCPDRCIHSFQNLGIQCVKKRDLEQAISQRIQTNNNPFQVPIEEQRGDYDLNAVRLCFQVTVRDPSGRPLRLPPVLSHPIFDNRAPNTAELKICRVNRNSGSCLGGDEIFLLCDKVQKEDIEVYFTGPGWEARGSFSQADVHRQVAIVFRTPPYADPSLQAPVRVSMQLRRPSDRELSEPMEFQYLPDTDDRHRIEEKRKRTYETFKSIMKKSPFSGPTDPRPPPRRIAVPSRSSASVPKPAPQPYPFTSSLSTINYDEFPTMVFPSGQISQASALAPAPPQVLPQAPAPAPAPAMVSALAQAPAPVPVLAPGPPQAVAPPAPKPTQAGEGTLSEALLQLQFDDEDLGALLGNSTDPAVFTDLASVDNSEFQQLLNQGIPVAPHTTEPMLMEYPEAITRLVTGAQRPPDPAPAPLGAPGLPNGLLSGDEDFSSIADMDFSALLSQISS
# Text: as §1, with “blot.” for “blot. To achieve equal expression of GFP-WR compared to unmodified GFP, it was necessary to transfect cells with three-fold more GFP-WR plasmid versus GFP. A one to one ratio was sufficient for CoIP illustrated in FIG. 4C.”
# as §2, §3
# TWIST1 [2] = target: T1, TWIST1; assay: as above; format: binding; conditions: increasing GFP-WR expression
# Text: as §1, with “blot.” for “blot. To achieve equal expression of GFP-WR compared to unmodified GFP, it was necessary to transfect cells with three-fold more GFP-WR plasmid versus GFP. A one to one ratio was sufficient for CoIP illustrated in FIG. 4C.”
# as §2, §3
Compound,"IL-8 promoter activity (FFluc expression) after proteasome inhibition (IL-8 promoter; MG132 1 μM overnight, cells expressing GFP-WR)","levels of TWIST1 and GFP in the cytoplasmic fraction after proteasome inhibition (TWIST1 [1]; MG132 5 μM overnight, cells expressing GFP-WR)","IL-8 promoter driven FFluc expression (normalized to Renilla luciferase) (IL-8 promoter; increasing dose of GFP-WR, Ovcar4 cells co-transfected with TWIST1 and RELA)",TWIST1 co-precipitated with RELA (TWIST1-RELA binding) (TWIST1-RELA binding),RELA co-precipitated with GFP (RELA),TWIST1 co-precipitated with GFP (TWIST1 [2]),"proportion of TWIST1 signal found in the cytoplasmic fraction (TWIST1 [1]; increasing GFP-WR transfection, western blot of fractionated cells)",absolute levels of TWIST1 and GFP in cytoplasmic and nuclear fractions (TWIST1 [1]; increasing amount of GFP-WR transfected)
"CC(C)C[C@@H](C=O)NC(=O)[C@H](CC(C)C)NC(=O)[C@H](CC(C)C)NC(=O)OCc1ccccc1 [MG132, reference compound] (Cbz-Leu-Leu-Leu-aldehyde)",increases; also recorded: partial rescue,partially rescue,,,,,,
"GFP-WR: fusion protein of GFP and the 20 amino acid WR domain of TWIST1, expressed from pEGFP-C3 as competitive inhibitor of TWIST1-RELA binding (LELSYAFSVWRMEGAWSMSASH; also: fused to GFP)",,,dose dependent drop; also recorded: dose-dependent reduction,reduced in a dose-dependent manner; also recorded: reduced in a dose dependent fashion,only trace amounts,more TWIST1 co-precipitated; also recorded: co-precipitated to a greater degree,slight increase; also recorded: mild increase,decreased

# From patent publication US10646540B2, “Peptide inhibitors of twist” (City of Hope, priority 2016, dated 2020)
